From the DeepSol protein solubility set

Assay: soluble on expression in E. coli; label from the status in PepcDB or PDB records

Sequence	soluble on expression in E. coli
MIYLFSHAGLRDLRDFIDRSTLFAFDLDGTLAPIVSDPAGIMIPPDVHERLVRLNGTASVAVVTGRARVDAARHLGFAPRFLVGNHGAEGLPGADAAEREFIGLCRGWMTQLGELLPEGEGTGIVMEDKSATLSLHYRNAPDRENAHQRILAAVSRLLPAPRRVSGKLVENLVPAAAPHKGDALRCIMRHLGCARALFVGDDVTDEDVFRLGDEAIFGIRVGNSGGSAARYFIRGQDEMAPLLDEILAVLLEHHHHHH	soluble
MSNVQNASRSSAFAAVEGDHWVESLDDGRHVLIRPLREEDRERERQFINRLSPATRHFRFLGEIKEASPALLDQLMDIDYQQSMAFVALVHEDGELREVGISRYAACCEEGQCECAVTIADDYQGLGLDAVLMRHLIDVARRNGFRQMYSVDSAANRAMRDLCCALGFVGQRDPDDSTQVIHRLAL	not soluble
MRRSGPELWKTLTSVSKSGQKKGRRNTRQPVRPLNRFYRIGSSPMKIEFAGLNAPIRMRETENQNLMSIAEQTEDEIRDSMGGTKKILEERDTGKKKRNREKLHPMERGFSGTQLVGQKLGAPPPLDGVNFDDFETYCLEVKRTSNMTNVFGRVHTMSALVVTGNGRGLAGYAVGKAPIHRTTTAIINGMGMASRKLFHVELHEGRTIYQDFYAECRNTRVFAQRRPRGFGLTCHPRLIKICEAIGIKDIYVKVEGSTKNYLALTHAFVTGLLNQETHQQLAERKGLHVVEMSPSRHFLPQIVASPISTELKTEETLEALDRLNLDDFYGEGRYPLRKPKSLPFFSNLEGHLDARWRKHPFRNQESTMIRLIADNMVPRWTRDARAAWADQRNERMTTGVEPMPLGIGLSHVVPKKDD	not soluble
MSLNEFPSRPIKLVVPYPAGGTLDIVGRNIAKMAEASLGEPIVADNVPGASGVIAHSQIARAPADGYTIGMSGLSPLVLAPHQYKNLPYSPLKDLSYVACFGETPLVLNVAISLPVKTVQELVAYAKANPGKLNYGSAGIGNASYLAAALFARQAGIEISHVPYKGNAPAMIDLVGGQIPILFDPPQTTLPQAATGKVRPLAVTSSQRFPGLPTLPTIAEAGWANYEFSIWYAMVAPAGVTLPPKNVSLAEWFNASKENGNDEDSAGALHAGIQAAARATAGTTPAARPCSVREGHHHHHH	not soluble
MKEVARVRNLNRIIMGKYEIEPWYFSPYPIELTDEDFIYIDDFTLQYFGSKKQYERYRKKCTLRHPPGNEIYRDDYVSFFEIDGRKQRTWCRNLCLLSKLFLDHKTLYYDVDPFLFYCMTRRDELGHHLVGYFSKEKESADGYNVASILTLPQYQRMGYGKLLIEFSYELSKKENKVGSPEKPLSDLGLLSYRAYWSDTLITLLVEHQKEITIDEISSMTSMTTTDILHTAKTLNILRYYKGQHIIFLNEDILDRYNRLKAKKRRTIDPNRLIWKPPV	soluble
GPGSMLSRIKRQQEEAQAATRSGGESAINQPGQKESMAVLRLKNDLDNLDGICSKVVIPDPDNMLRMKVTVRPSRPSIWHGGFFDFLLEFREEYPYEGPRVRYVGPNRVWHPNIEGSEFAEKEGMEKASRKTEWSVCLSFQTDWKPTFSLRDVIIMIELLFQDPNPDDPLHGTSKQAAQMMKDDPVRFRTKARYWMSGHYID	soluble
MQRTGELPAEHVPVILESSGAGDFHLIDSGNGLKLEQYGDYRVVRPEAQALWRPLVPDRVWQNADAIFTGDTDEDGMGRWRFPKEALGETWPLSLLGVEFLGRFTAFRHVGVFPEQIVHWEWLKNAVETADRPLKVLNLFGYTGVASLVAAAAGAEVTHVDASKKAIGWAKENQVLAGLEQAPIRWICEDAMKFIQREERRGSTYDIILTDPPKFGRGTHGEVWQLFDHLPLMLDICREILSPKALGLVLTAYSIRASFYSMHELMRETMRGAGGVVASGELVIREAGLDGKTPGRVLSTSLFSRWEPK	soluble
AYPSFEAYSNYKVDRTDLETFLDKQKEVSLYYLLQNIAYPEGQFNNGVPGTVIASPSTSNPDYYYQWTRDSAITFLTVLSELEDNNFNTTLAKAVEYYINTSYNLQRTSNPSGSFDDENHKGLGEPKFNTDGSAYTGAWGRPQNDGPALRAYAISRYLNDVNSLNEGKLVLTDSGDINFSSTEDIYKNIIKPDLEYVIGYWDSTGFDLWEENQGRHFFTSLVQQKALAYAVDIAKSFDDGDFANTLSSTASTLESYLSGSDGGFVNTDVNHIVENPDLLQQNSRQGLDSATYIGPLLTHDIGESSSTPFDVDNEYVLQSYYLLLEDNKDRYSVNSAYSAGAAIGRYPEDVYNGDGSSEGNPWFLATAYAAQVPYKLAYDAKSASNDITINKINYDFFNKYIVDLSTINSAYQSSDSVTIKSGSDEFNTVADNLVTFGDSFLQVILDHINDDGSLNEQLNRYTGYSTGAYSLTWSSGALLEAIRLRNKVKALA	soluble
MVNRCFFFNRRICFMELFLLRHGKPDIRRSMAIRSVDMYSWIGEYDAAGILDSPDASTVAASEGKFIVSSPMPRALESVAALGLEPDIIIDELHEAPLPVFNIPLLKLTPLVWAALFRIFWMAGGSGGVETFSSVKIRAKLVSCELDKMAETHGSVLSVGHGFMNALVARELQKAGWKRQKVGPSGYWSGIKLVRLEHHHHHH	soluble
MGSDKIHHHHHHMMTKTKADKYPQRVRNELRFRELTVLRVERAGAAFQRIVLGGEALEGFASHGFDDHTKLFFPEPGAAFTPPQVTEEGIDWGEGVRPATRDYTPLYDAERHELAYDFYIHDGGIASRWALEAKVGDKLVIGGPRGSLVVPEDYAWQLYVCDESGMPALRRRLLGLRQLPARPQVTAIVTIADASYKDYLADLDGFNIEWVVGHNPAFVAERLAQVKVPAEDYFIWLTGEGAVVKSLLARFEDESIDQQLVRSQAYWHSK	not soluble
HDFASWVSGDSMEPKYHNGSVTLIRETGFDYDGAVYAVVCNSQTYIKRVYLEAEGLRLKYKDIFISYDEDPRVVRIIIGNFIPL	not soluble
RDLAVAILMDCSRSTEASVGERTVIDTAREALAALAAGIDVAGDRQAIWGFSSLRRDRVFLHLCKRFDEPMGPAVTARIGGLRPGHYTRLGAAIRHASARLNEEAASRKLLLVLTDGKPNDLDHYEGVHGIEDSRMAVREARALSQAVHGVVIDADGQDWFARIFGRAGFTLLPEPARLARALPDLYRSLTQEI	not soluble
MAHHHHHHMVSDPSFCKKAPSSDLLGSNGRKVPPSFIAPPSSDVFLTSRRKTSFRNKSALTCLGKDVMSVSYGCGMRFRKAVRSGLSVFREAITLTDGGRHEGSHSRTSDSRPPQLSKRSMREIRRRIISPSYLEITSRTSTASSSTLRYIRLDFFKKTRRR	not soluble
MAHHHHHHVDDDDKMVTDQRWLIDKSALVRLTDSPDMEIWSNRIERGLVHITGVTRLEVGFSAECGEIARREFREPPLSAMPVEYLTPRIEDRALEVQTLLADRGHHRGPSIPDLLIAATAELSGLTVLHVDKDFDAIAALTGQKTERLTHRPPSA	soluble
MASIKEELISAAESESQVMQIVQAALEGIDMDALTSMTPGLPQTVRQTAINSLLSSKKLAIQQAPGGVLRLKVNTSEQIAGTEEEQVIYSLIEESKTRGIWIKELREGSGLNQLQLRKTLKSLETKKLIKTIKAVGTTRKCYILFSIEPDMSLTGGTFYSDQQLDSELINTLISVCGSYAASRRKHAIDENPNNIQMQREASYIRPQEIAQFITEKRVLNVPLSLEDLERILEVAVLDGTIERRADGKIRACPPRSSISPLVSVPCAICPVVEDCRPGYVISPQSCDYMKNWLADL	not soluble
MGSDKIHHHHHHEPTKLTPENYFNTPAEANSFLTGIYAILSQPTFYGGDYMYLVAGDDLSHYGGSGRGPASTGLICNNATTSDNAVTAFWYALYSGINRANMFLENIDKVNGFDAGVKEQYIAEARFLRAFYYFNLVECWGDVPFKTVSTQSVTNLNIPRTDKQEIYDFIISEMADAAETGLKSASDLAYKPGRISQSTAWGILARVYLFRAGEHYREGRNATQAEKKDYFERASFYAQKVMTAGHKLAANYWDPFIDMCSDKYNTTANESIWEAEFAGNNTSDTQAEGRIGNIIGLAGPDLSSKSDVTGAKDPGYGYAFIYSTPKLYNLYVNNGDTKRFNWSIAPFEYKEAGGKNTGVTHREFEQGKLAEVMSQYGQQRGTYQYADDTEKTTATKNFSRMCGKYRREYEADKKDKNYTSINFPILRYADVLLMIAEAENEANNGPTTLAYQCMKEVRERAGLNELPDMTQEEFRQTVKDERAMELCFEYTRRFDLIRWGEYVKNMRALVTEAQSGNNWTQGPTNVYTYFNISSTYNYFPIPDAEMSVNKDITQNNPGW	not soluble
MNTYVAEIGEIVRSQRRDEEYIEDITERLSRVSKELLGQRTWIRWFPYLKSIASTLYYTSTVVLGNQTLGEEYVHLFESNGLERTVPSIPSRISFVLLHSAFPLISNYLIQKAESTLTHPSTESFLGIPIRKNQKARQSFLDVFFWLRTKLFPQLQRAHIALFYITGAYYSIARRFTGIRFLSASAHSDIPALKVYRFLGYITLIQLAVSIGISLYSFLEQEKFNNKLKKEKKENNGGSDRNLDENSLFHPTFQCSICLENKNPSALFCGHLFCWTCIQEHAVAATSSASTSSARCPQCRLEFQPRDPNNLRLLSTSTHPTIYFTGIQPTGIPHLGNFFGSIEPWTELQNSVDKNILMMLSVVDQHAISLGPLPANELRQNTHQMTASLIACGVDPNRTLLFRQSDVPQIAQISWILGSLQTTSKLARLPQYKEKKERFKKGDIPVGLLTYPLLQAADVLTFKATTVPVGEDQSQHLNLLGGLAYAFNKTYETEIFPIPKQLTRESHARIRSLREPEKKMSKSSGGPRSRIEITDSRSTIIEKCQKAQSDNAGKVTYDKENRLAVSNLLDLYSAVTKTQTSEIDFSNWTTLDLKMNLAEAVDKRLAPIRQKFEELQNTGEVDKVLTENGEKAREIAEKNLEEIRRTIGFL	not soluble
MSLTLSPTTIFPARCIHTMNATQPRATHVAVREGRILDVGDASLREAWPDAVVDSRFSDKVLLPGLIEGHSHLLEGGMWRFVYVGYYDRRGPDGRVWPGLKSYEAVIERLRAAEALMPDAQAPLLAWGFDPIHFGGQRMTTCHLDQVSKTRRIVVLHASVHLLNVNTAMLRQADIHAGLRIDGIVRAADGTPTGELQEFAAMFMVFKHIGNVFFDAGQSEEGIRNFAKIAQQAGVTTATDLSHALADDMVDNLVRVTGEDDFPLRLVAAYSPMRDMNGRSVDRVVRATQRNTAKLHFGLVKLVIDGSIQGYTARVRWPGYHNGAPNGMWIIAPQQLRELLMEYHKAGLTIHIHTNGDEATEVAMDALESVLAEYPRWDHRHTLQHCQMADAAQFRRMARLGMCANLFANHLYFWGDAHYTDTLGPARAFRMNAAKTALQAGVPISLHSDAPITPIGPLFTAWCAVNRVTAGGRILGSQERIPVMDALHAMTLGAAYTLKLDHLIGSIEVGKLADFAVLEADPLEVAPQDLAGIGIWGTVLGGRSFPAPQLSEGHHHHHH	soluble
SEVLRPQLIRIDGRNYRKNPVQEQTYQHEEDEEDFYQGSMECADEPCDAYEVEQTPQGFRSTLRAPSLLYKHIVGKRGDTRKKIEMETKTSISIPKPGQDGEIVITGQHRNGVISARTRIDVLLDTFRRKQPFTHFLAFFLNEVEVQEGFLRFQEEVLAKCSMDHGVDSSIFQNPKKLHLTIGMLVLLSEEEIQQTCEMLQQCKEEFINDISGGKPLEVEMAGIEYMNDDPGMVDVLYAKVHMKDGSNRLQELVDRVLERFQASGLIVKEWNSVKLHATVMNTLFRKDPNAEGRYNLYTAEGKYIFKERESFDGRNILKLFENFYFGSLKLNSIHISQRFTVDSFGNYASCGQIDFS	soluble
MAQRFTDEVAIVTGSSNGIGRATAILLASEGAKVTITGRNAERLEESRQALLKVGVPSGHINSVVADVTTGAGQDVLIDSTLKKFGKINILINNAGALIVDPEGKTNTSTGVETCLKTFQLNFQSVVEMTQKIRPHLANTHGEIVNVSSVGAGPAAENRFPYYSAAKAALDQYSRNTAIDLIPDGIRVNIVQPGFVATGFTTAASGMSPDASAKMYEGIGANTSCIPAGYCGRPEHLASVIAFLADRKASEYIVGQTIIADGGTTLVRGRNVALATRRAE	not soluble
